Reference: patent CN114605536A

Target: 天然TSLP
Assay: cell-based or functional assay

抑制天然TSLP诱导的SW756-STAT5-Luciferase报告基因细胞STAT5磷酸化活性的IC50: 1.45 ng/mL
Substance: Tezepelumab (antibody)
